This test addresses HeV PNT3 (aa 200-310 of the Hendra virus P/V protein) (Hendra virus) (UniProt O55778). The test can be described thus: SAXS.

The term stoichiometry N denotes the number of molecules, sites or subunits per partner or assembly.

In turn, “HeV PNT3 (aa 200-310 of the Hendra virus P/V protein) (from UniProt O55778 200-310) (domain or fragment)” registered a stoichiometry N of 100 monomers.

For the origin of these results see doi:10.1101/497024.
